Source: FireProtDB (doi:10.1016/j.csbj.2015.03.010)

B1: Arabinogalactan endo-beta-1,4-galactanase, P48842 (parent)
chain: MFASLLLAALPLLTHAALTYRGADISSLLLLEDEGYSYKNLNGQTQALETILADAGINSIRQRVWVNPSDGSYDLDYNLELAKRVKAAGMSLYLDLHLSDTWADPSDQTTPSGWSTTDLGTLKWQLYNYTLEVCNTFAENDIDIEIISIGNEIRAGLLWPLGETSSYSNIGALLHSGAWGVKDSNLATTPKIMIHLDDGWSWDQQNYFYETVLATGELLSTDFDYFGVSYYPFYSASATLASLKTSLANLQSTYDKPVVVVETNWPVSCPNPAYAFPSDLSSIPFSVAGQQEFLEKLAAVVEATTDGLGVYYWEPAWIGNAGLGSSCADNLMVDYTTDEVYESIETLGEL

Variants of: B1
Details: Aspergillus aculeatus; pH 4.5; Thermal; DSC; sodium acetate buffer 50 mM; transition: 2; reversible: no; structure 1FHL; whole UniProt chain shown

Q: With D74N as the variant, how does the Tm read?
A: Its Tm is 61.5 °C.

Q: What about the “change of melting temperature, mutant - wild type (higher = more stable)” value (“change of melting temperature, mutant” below) of the same variant?
A: Its value is 0.65 °C.

Q: Which Tm does the source give for G120D A172R here?
A: Its Tm is 60.7 °C.

Q: And the “change of melting temperature, mutant” value?
A: Its value is -0.18 °C.

Q: With D198N as the variant, how does the Tm read?
A: The Tm was 61.4 °C.

Q: What about the “change of melting temperature, mutant” value of the same variant?
A: Its value is 0.53 °C.

Q: What does the source list for S201D Q204T?
A: Tm: 61 °C; change of melting temperature, mutant - wild type (higher = more stable): 0.11 °C

Q: For Y311F, which Tm is on record?
A: The Tm was 61.2 °C.

Q: And the “change of melting temperature, mutant” value?
A: The value was 0.34 °C.

Q: For G322A, which Tm is on record?
A: Its Tm is 62 °C.

Q: What about the “change of melting temperature, mutant” value of the same variant?
A: The value was 1.1 °C.
